Test results: article PMC9347011, “Transcriptional and post-transcriptional regulation of ethylene biosynthesis by exogenous acetylsalicylic acid in kiwifruit”

T1: AdWRKY29 (kiwifruit, UniProt A0A2R6PHX2 1-296)
T1 sequence: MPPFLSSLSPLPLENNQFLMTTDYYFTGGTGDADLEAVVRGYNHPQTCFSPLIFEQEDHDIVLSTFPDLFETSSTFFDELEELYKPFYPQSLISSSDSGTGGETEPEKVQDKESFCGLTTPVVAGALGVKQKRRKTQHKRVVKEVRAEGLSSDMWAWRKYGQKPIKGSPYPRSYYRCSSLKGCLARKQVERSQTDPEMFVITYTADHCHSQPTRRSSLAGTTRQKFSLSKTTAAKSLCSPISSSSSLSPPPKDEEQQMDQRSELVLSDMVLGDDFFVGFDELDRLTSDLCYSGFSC

B1: AdACO5 promoter W-box probe (dsDNA)
DNA 1: AACAAAGTCCAGTTGACCACTTTAATTTCC
DNA 2: GGAAATTAAAGTGGTCAACTGGACTTTGTT
B2: AdACO5 promoter W-box mutant probe (dsDNA)
DNA 1: AACAAAGTCCAGAAAAAAACTTTAATTTCC
DNA 2: GGAAATTAAAGTTTTTTTCTGGACTTTGTT
B3: AdACS2 promoter DRE probe (dsDNA)
DNA 1: CTAAGATTTGCTGTCGGTATGGCTCTCAT
DNA 2: ATGAGAGCCATACCGACAGCAAATCTTAG
B4: AdACS1 promoter DRE probe (dsDNA)
DNA 1: CTGCGATTTGCCGTCGGTACGACTCTCATC
DNA 2: GATGAGAGTCGTACCGACGGCAAATCGCAG

Experiments:
Conditions in all cases: protein: recombinant; tags: GST (pGEX-4T-1); label: 3'-biotin
AdWRKY29 [1] = target: T1, AdWRKY29; assay: EMSA; reduced by 20- and 500-fold unlabeled probe; LightShift Chemiluminescent EMSA kit (Thermo); 3'-biotin dsDNA probes, 20- and 500-fold unlabeled competitor; buffer, salt, pH and temperature not stated
AdWRKY29 [2] = target: T1, AdWRKY29; assay: EMSA; LightShift Chemiluminescent EMSA kit (Thermo); 3'-biotin dsDNA probes, 20- and 500-fold unlabeled competitor; buffer, salt, pH and temperature not stated
AdERF105L = AdERF105L (kiwifruit, UniProt A0A2R6RWH8 1-269); assay: EMSA; reduced by 20- and 500-fold unlabeled probe; LightShift Chemiluminescent EMSA kit (Thermo); 3'-biotin dsDNA probes, 20- and 500-fold unlabeled competitor; buffer, salt, pH and temperature not stated
Sequence of AdERF105L (A0A2R6RWH8 entry or part of it): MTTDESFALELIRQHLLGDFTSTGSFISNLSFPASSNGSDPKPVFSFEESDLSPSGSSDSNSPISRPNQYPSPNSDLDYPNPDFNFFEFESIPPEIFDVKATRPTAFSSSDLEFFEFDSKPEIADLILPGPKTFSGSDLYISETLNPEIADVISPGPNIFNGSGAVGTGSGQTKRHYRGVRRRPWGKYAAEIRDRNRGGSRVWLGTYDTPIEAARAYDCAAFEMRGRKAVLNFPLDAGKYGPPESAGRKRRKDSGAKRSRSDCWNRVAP

Row | Binder | binding result (AdERF105L) | other results
1 | B1 |  | binding result (AdWRKY29 [1]): binds
2 | B2 |  | binding result (AdWRKY29 [2]): no binding
3 | B3 | binds | 
4 | B4 | binds | 
